According to doi:10.1101/2022.08.08.503162:

Molecular target: His6-tagged luminal domain (ectodomain) of human SR-B1, amino acids 33-444 (human) (UniProt Q8WTV0)
Test: MST

Kd: 2060 nM
Substance: full-length APOA1-Milano expressed in 293F cells (protein A-APOA1-Milano construct) (from UniProt P02647 19-267) (natural protein)
